Values quoted from earlier work in publication PMC8634938.

Columns and labels:
IL-22R (Homo sapiens) = IL-22R (Homo sapiens) (UniProt Q8N6P7)
IL-22BP (Homo sapiens) = IL-22BP (Homo sapiens) (UniProt Q969J5)
Chain of UniProt Q969J5 (Q969J5 22-263): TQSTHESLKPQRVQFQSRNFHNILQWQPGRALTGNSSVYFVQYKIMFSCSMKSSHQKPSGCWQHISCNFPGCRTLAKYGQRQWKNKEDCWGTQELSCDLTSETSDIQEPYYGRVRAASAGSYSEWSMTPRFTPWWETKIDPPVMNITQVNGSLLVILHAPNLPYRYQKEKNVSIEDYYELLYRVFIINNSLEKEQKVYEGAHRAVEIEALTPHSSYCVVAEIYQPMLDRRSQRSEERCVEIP

Chain of UniProt Q8N6P7 (Q8N6P7 16-228): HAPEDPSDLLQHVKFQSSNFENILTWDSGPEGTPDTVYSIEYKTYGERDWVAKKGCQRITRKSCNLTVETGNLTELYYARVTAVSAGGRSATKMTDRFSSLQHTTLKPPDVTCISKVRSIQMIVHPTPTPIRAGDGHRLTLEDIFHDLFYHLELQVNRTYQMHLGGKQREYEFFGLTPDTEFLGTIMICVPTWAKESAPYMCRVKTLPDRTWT

IL-22 (from UniProt Q9GZX6)
Kd (IL-22R (Homo sapiens)): 20 nM | Kd (IL-22BP (Homo sapiens)): 0.001 nM
